Assay results published in doi:10.1101/2021.12.14.472590 (bioRxiv, 2021).

Molecular target: human β-actin (recombinant G-actin) (human, UniProt P60709 1-375)
Assay: NMR titration

B1: ADAP1-381 (N-terminal intrinsically disordered fragment of ADAP) (domain or fragment)
chain: MAKYNTGGNPTEDVSVNSRPFRVTGPNSSSGIQARKNLFNNQGNASPPAGPSNVPKFGSPKPPVAVKPSSEEKPDKEPKPPFLKPTGAGQRFGTPASLTTRDPEAKVGFLKPVGPKPINLPKEDSKPTFPWPPGNKPSLHSVNQDHDLKPLGPKSGPTPPTSENEQKQAFPKLTGVKGKFMSASQDLEPKPLFPKPAFGQKPPLSTENSHEDESPMKNVSSSKGSPAPLGVRSKSGPLKPAREDSENKDHAGEISSLPFPGVVLKPAASRGGPGLSKNGEEKKEDRKIDAAKNTFQSKINQEELASGTPPARFPKAPSKLTVGGPWGQSQEKEKGDKNSATPKQKPLPPLFTLGPPPPKPNRPPNVDLTKFHKTSSGNSTS
binding result: binds
